The values that follow come from patent US7521540B2, “CYR61 compositions and methods” (Munin Corporation, priority 1996, dated 2009).

Assay [1] in a line: Heparin binding assay (salt elution from heparin-Sepharose/agarose). Particulars: for NaCl concentration of elution from heparin-Sepharose/agarose: increasing salt concentrations.
For the next assay, the target named is T1, αllbβ3 (Homo sapiens, UniProt P05106+P08514).
T1 construct: from tissue; host or cells: outdated human platelets
The experiment in a line: Solid-phase binding assay with purified integrin. Particulars: for Kd: RGD-affinity purified αllbβ3, immobilized protein, read-out: half-saturation of activated αllbβ3 binding. The method, then:
In these experiments, activated and unactivated αllbβ3 were purified from platelet lysates. Activated αllbβ3 was purified by RGD affinity chromatography, as described (Knezevic et al., J. Biol. Chem. 271:16416-16421 [1996]). Briefly, outdated human platelets were isolated by differential centrifugation and solubilized in lysis buffer (10 mM HEPES, pH 7.4, 0.15 M NaCl, containing 1 mM CaCl2, 1 mM MgCl2 100 μM leupeptin, 1 mM phenylmethylsulfonyl fluoride, 10 mM-ethylmaleimide, and 50 mM octylglucoside). The octylglucoside extract was incubated with 1 ml GRGDSPK-coupled Sepharose 4B overnight at 4° C. After washing with 15 ml column buffer (same as lysis buffer except it contained 25 mM octylglucoside), bound αllbβ3 was eluted with 1.7 mM H12 (2 ml) in column buffer. The H12 eluate was applied to a Sephacryl S-300 High Resolution column (1.5×95 cm), and αllbβ3 was eluted with 10 mM HEPES, pH 7.4, 0.15 M NaCl, 1 mM CaCl2, 1 mM MgCl2 and 25 mM octylglucoside.
Unactivated αllbβ3 was isolated by the method of Fitzgerald et al., Anal. Biochem. 151:169-177 (1985), with slight modifications. The flow-through fraction of the GRGDSPK-Sepharose column was applied to a concanavalin A-Sepharose 4B column (1×20 cm). Unbound proteins were washed with 50 ml column buffer, and bound αllbβ3 was then eluted with 100 mM mannose dissolved in column buffer. Fractions containing αllbβ3 were further purified on a Sephacryl S-300 High Resolution column
To perform the solid-phase binding assay, purified αllbβ3 was added to wells coated with either Cyr61 or Fisp12 (mCTGF) in the presence or absence of inhibitors and binding was allowed to proceed for 3 hours at 37° C. Unbound receptor was removed and the wells wee washed twice with HEPES-Tyrode's Buffer. The binding of purified αllbβ3 to Cyr61 or Fisp12/mCTGF immobilized onto microtiter wells was detected with ^125I-mAb15.

Another assay relates to NIH 3T3 fibroblasts. The experiment in a line: Thymidine incorporation (mitogen potentiation), NIH 3T3. In kind it is cell-based, mouse. As for the experimental part:
More specifically, NIH 3T3 fibroblast cells were plated on 24-well plates at 3×10^4 cells/well and grown in DMEM with 10% fetal bovine serum (Intergen Co., Purchase, N.Y.) for 3-4 days and incubated with medium containing 0.2% FBS for the following 48 hours. The following compounds, at the parenthetically noted final concentrations, were then added to the plated cells in fresh DMEM containing 0.2% fbs and [^3H]-thymidine (1 μCi/ml final concentration; ICN Biomedicals, Inc., Costa Mesa, Calif.): bFGF (15 ng/ml), PDGF-BB (30 ng/ml), and murine Cyr61 (0.5-5 μg/ml). These compounds were added to individual plates according to the following pattern: 1) no supplementation; 2) murine Cyr61; 3) bFGF; 4) murine Cyr61 and bFGF; 5) PDGF-BB; and 6) murine Cyr61 and PDGF. After 18-20 hours of incubation, cells were washed with PBS and fixed with 10% trichloroacetic acid. DNA was dissolved in 0.1 N NaOH and thymidine incorporation was determined. […] Without any supplements, 3T3 cells incorporated approximately 1.8×10^4 cpm of [^3H]-thymidine, in the presence or absence of Cyr61. Cells exposed to bFGF alone incorporated about 1.2×10^5 cpm; cells contacting bFGF and murine Cyr61 incorporated 2×10^5 cpm. Cells receiving PDGF-BB incorporated about 1.2×10^5 cpm; and cells exposed to PDGF-BB and murine Cyr61 incorporated approximately 2.4×10^5 cpm.
DNA synthesis for HUVE cells and NIH 3T3 fibroblasts was measured by thymidine incorporation as described previously (Kireeva et al., [1996]) with minor modifications. HUVE cells were grown in 24-well plates to a subconfluent state, serum-starved for 24 hours and treated with F12K medium containing 10% fetal bovine serum (FBS), 1 μCi/ml [^3H]-thymidine and 10 ng/ml basic Fibroblast Growth Factor (bFGF) (Gibco-BRL, Inc.) with various concentrations of Cyr61 and Fisp12 as indicated. NIH 3T3 fibroblasts were grown to subconlfluence, serum-starved for 48 hours, and treated with Minimal Essential Medium (MEM) containing 0.5% FBS, 1 μCi/ml [^3H]-thymidine, bFGF and various concentrations of Cyr61 or Fisp12. Thymidine incorporation into the trichloroacetic acid-insoluble fraction was determined after 24 hour incubation. Logarithmically grown mink lung epithelial cells (Mv1lu, CCL64) were treated with various concentrations of TGF-β1 (Gibco-BRL) and 2 μg/ml of Cyr61 or Fisp12 for 18 hours; [^3H]-thymidine was then added to 1 μCi/ml for 2 hours. Thymidine incorporation was determnined as described above.

B1: Fisp12: Cysteine-rich murine protein, SEQ ID NO:6, mouse ortholog of CTGF (protein, listed as Mus musculus)
chain: MLASVAGPISLALVLLALCTRPATGQDCSAQCQCAAEAAPHCPAGVSLVLDGCGCCRVCAKQLGELCTERDPCDPHKGLFCDFGSPANRKIGVCTAKDGAPCVFGGSVYRSGESFQSSCKYQCTCLDGAVGCVPLCSMDVRLPSPDCPFPRRVKLPGKCCKEWVCDEPKDRTAVGPALAAYRLEDTFGPDPTMMRANCLVQTTEWSACSKTCGMGISTRVTNDNTFCRLEKQSRLCMVRPCEADLEENIKKGKKCIRTPKIAKPVKFELSGCTSVKTYRAKFCGVCTDGRCCTPHRTTTLPVEFKCPDGEIMKKNMMFIKTCACHYNCPGDNDIFESLYYRKMYGDMA
Turning to B1, in assay [1], the “NaCl concentration of elution from heparin-Sepharose/agarose” value is on record as 0.2 to 0.6 M NaCl. Besides, the “peak elution from heparin agarose” value in assay [1] (metabolically labeled cell lysates) is listed as 0.4 M NaCl. In the assay with αllbβ3, the “binding of activated versus unactivated αllbβ3” value was “greater binding of activated versus unactivated” and the Kd is 15 nM. The “enhancement of FGF-induced DNA synthesis” value in the assay with NIH 3T3 fibroblasts (NIH 3T3 fibroblasts) is on record as “enhance DNA synthesis induced by fibroblast growth factor”. In the assay with NIH 3T3 fibroblasts (any tested assay conditions), the “mitogenic activity by itself” value was “did not exhibit any mitogenic activity”.

B2: Cyr61: Cysteine-rich ECM signaling protein; murine sequence SEQ ID NO:2, recombinant from Baculovirus-infected Sf9 cells (protein, listed as Mus musculus)
chain: MSSSTFRTLAVAVTLLHLTRLALSTCPAACHCPLEAPKCAPGVGLVRDGCGCCKVCAKQLNEDCSKTQPCDHTKGLECNFGASSTALKGICRAQSEGRPCEYNSRIYQNGESFQPNCKHQCTCIDGAVGCIPLCPQELSLPNLGCPNPRLVKVSGQCCEEWVCDEDSIKDSLDDQDDLLGLDASEVELTRNNELIAIGKGSSLKRLPVFGTEPRVLFNPLHAHGQKCIVQTTSWSQCSKSCGTGISTRVTNDNPECRLVKETRICEVRPCGQPVYSSLKKGKKCSKTKKSPEPVRFTYAGCSSVKKYRPKYCGSCVDGRCCTPLQTRTVKMRFRCEDGEMFSKNVMMIQSCKCNYNCPHPNEASFRLYSLFNDIHKFRD
For the molecule B2, the “NaCl concentration of elution from heparin-Sepharose/agarose” value in assay [1] was 0.8-1.0 M NaCl. Further, in the assay with αllbβ3, the “binding of activated versus unactivated αllbβ3” value is listed as “greater binding of activated versus unactivated” and the Kd was found to be 25 nM. For the same molecule, in the assay with NIH 3T3 fibroblasts (PDGF-BB 30 ng/ml plus murine Cyr61 0.5-5 μg/ml), the “[3H]-thymidine incorporation with PDGF-BB” value is on record as “approximately 2.4×10^5 cpm”. In addition, the “[3H]-thymidine incorporation with bFGF” value with NIH 3T3 fibroblasts (bFGF 15 ng/ml plus murine Cyr61 0.5-5 μg/ml) was 2×10^5 cpm. For the same molecule, in the assay on NIH 3T3 fibroblasts (either cell type (NIH 3T3 or HUVE)), the “minimum concentration for enhancement of bFGF- or PDGF-BB-induced thymidine incorporation” value lay in the range of 0.5 to 1.0 µg/mL. The “[3H]-thymidine incorporation, no growth factor” value in the assay on NIH 3T3 fibroblasts (presence or absence of Cyr61) was “approximately 1.8×10^4 cpm”.
